Assay results as given in patent publication US20230190867A1, “METHODS OF TREATING NASH AND COMPOSITIONS THEREFORE” (BIOINCEPT, LLC, priority 2018, published 2023).

Key:
[1] = target: 14-3-3 protein epsilon (Homo sapiens) (UniProt P62258); assay: PIF-agarose affinity extraction of normal human liver lysate 2, LC-MS/MS
[2] = target: Alcohol dehydrogenase 1A (Homo sapiens) (UniProt P07327); assay: as above
[3] = target: Calmodulin (Homo sapiens) (UniProt P0DP23); assay: as above
[4] = target: Cytochrome b5 (Homo sapiens) (UniProt P00167); assay: as above
[5] = target: Cytosolic 10-formyltetrahydrofolate dehydrogenase (Homo sapiens) (UniProt O75891); assay: as above
[6] = target: Enoyl-CoA hydratase domain-containing protein 2, mitochondrial (Homo sapiens) (UniProt Q86YB7); assay: as above
[7] = target: Membrane-associated progesterone receptor component 1 (Homo sapiens) (UniProt O00264); assay: as above
[8] = target: Protein disulfide-isomerase (Homo sapiens) (UniProt P07237); assay: as above
[9] = target: Protein disulfide-isomerase A3 (Homo sapiens) (UniProt P30101); assay: as above
[10] = target: Protein disulfide-isomerase A4 (Homo sapiens) (UniProt P13667); assay: as above
[11] = target: Tropomyosin alpha-4 chain (Homo sapiens) (UniProt P67936); assay: as above
Vimentin (Homo sapiens) [12] = target: Vimentin (Homo sapiens) (UniProt P08670); assay: as above
[13] = target: 14-3-3 protein epsilon (Homo sapiens) (UniProt P62258); assay: PIF-agarose affinity extraction of normal human liver lysate 3, LC-MS/MS
[14] = target: 78 kDa glucose-regulated protein (Homo sapiens) (UniProt P11021); assay: as above
[15] = target: Activated RNA polymerase II transcriptional coactivator p15 (Homo sapiens) (UniProt P53999); assay: as above
[16] = target: Alcohol dehydrogenase 1A (Homo sapiens) (UniProt P07327); assay: as above
[17] = target: Alcohol dehydrogenase 1B (Homo sapiens) (UniProt P00325); assay: as above
[18] = target: Alcohol dehydrogenase 4 (Homo sapiens) (UniProt P08319); assay: as above
[19] = target: Alpha-actinin-4 (Homo sapiens) (UniProt O43707); assay: as above
[20] = target: Calmodulin (Homo sapiens) (UniProt P0DP23); assay: as above
[21] = target: Calreticulin (Homo sapiens) (UniProt P27797); assay: as above
[22] = target: Cytochrome b-c1 complex subunit 6, mitochondrial (Homo sapiens) (UniProt P07919); assay: as above
[23] = target: Cytochrome b5 (Homo sapiens) (UniProt P00167); assay: as above
[24] = target: Cytosolic 10-formyltetrahydrofolate dehydrogenase (Homo sapiens) (UniProt O75891); assay: as above
[25] = target: Delta-aminolevulinic acid dehydratase (Homo sapiens) (UniProt P13716); assay: as above
[26] = target: Endoplasmin (Homo sapiens) (UniProt P14625); assay: as above
[27] = target: Enoyl-CoA hydratase domain-containing protein 2, mitochondrial (Homo sapiens) (UniProt Q86YB7); assay: as above
[28] = target: Hepatoma-derived growth factor (Homo sapiens) (UniProt P51858); assay: as above
[29] = target: Membrane-associated progesterone receptor component 1 (Homo sapiens) (UniProt O00264); assay: as above
[30] = target: Parathymosin (Homo sapiens) (UniProt P20962); assay: as above
[31] = target: Peroxiredoxin-1 (Homo sapiens) (UniProt Q06830); assay: as above
[32] = target: Protein disulfide-isomerase (Homo sapiens) (UniProt P07237); assay: as above
[33] = target: Protein disulfide-isomerase A3 (Homo sapiens) (UniProt P30101); assay: as above
[34] = target: Protein disulfide-isomerase A4 (Homo sapiens) (UniProt P13667); assay: as above
[35] = target: Transitional endoplasmic reticulum ATPase (Homo sapiens) (UniProt P55072); assay: as above
[36] = target: Tropomyosin alpha-4 chain (Homo sapiens) (UniProt P67936); assay: as above
Vimentin (Homo sapiens) [37] = target: Vimentin (Homo sapiens) (UniProt P08670); assay: as above

Cytosolic 10-formyltetrahydrofolate dehydrogenase (Homo sapiens), sequence (O75891 whole entry, the tested form may be a part): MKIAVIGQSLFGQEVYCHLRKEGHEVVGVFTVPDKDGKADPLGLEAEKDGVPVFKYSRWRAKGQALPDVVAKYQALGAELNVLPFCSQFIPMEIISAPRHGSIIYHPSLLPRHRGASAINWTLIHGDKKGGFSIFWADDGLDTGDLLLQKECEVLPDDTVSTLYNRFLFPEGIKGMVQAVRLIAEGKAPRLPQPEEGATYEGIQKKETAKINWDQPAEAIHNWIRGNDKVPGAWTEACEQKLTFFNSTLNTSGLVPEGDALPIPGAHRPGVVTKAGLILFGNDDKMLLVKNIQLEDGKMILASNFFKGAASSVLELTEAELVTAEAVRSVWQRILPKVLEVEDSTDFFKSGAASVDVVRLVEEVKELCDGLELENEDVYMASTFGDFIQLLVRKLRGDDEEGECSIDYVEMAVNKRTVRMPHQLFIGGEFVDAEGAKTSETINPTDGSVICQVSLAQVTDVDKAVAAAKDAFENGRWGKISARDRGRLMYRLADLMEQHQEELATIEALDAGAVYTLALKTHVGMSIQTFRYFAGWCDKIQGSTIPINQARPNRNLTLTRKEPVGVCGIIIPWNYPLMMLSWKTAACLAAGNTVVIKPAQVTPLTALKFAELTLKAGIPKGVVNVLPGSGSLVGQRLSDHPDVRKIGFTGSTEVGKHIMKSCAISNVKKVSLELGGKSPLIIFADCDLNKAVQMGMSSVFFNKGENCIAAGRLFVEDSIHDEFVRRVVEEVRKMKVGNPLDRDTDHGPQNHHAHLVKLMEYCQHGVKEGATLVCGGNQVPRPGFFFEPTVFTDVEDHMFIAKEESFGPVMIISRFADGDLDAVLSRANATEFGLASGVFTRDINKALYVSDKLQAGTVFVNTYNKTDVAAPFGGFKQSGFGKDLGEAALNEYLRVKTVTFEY
Alcohol dehydrogenase 1A (Homo sapiens), sequence (P07327 2-375 limits assumed): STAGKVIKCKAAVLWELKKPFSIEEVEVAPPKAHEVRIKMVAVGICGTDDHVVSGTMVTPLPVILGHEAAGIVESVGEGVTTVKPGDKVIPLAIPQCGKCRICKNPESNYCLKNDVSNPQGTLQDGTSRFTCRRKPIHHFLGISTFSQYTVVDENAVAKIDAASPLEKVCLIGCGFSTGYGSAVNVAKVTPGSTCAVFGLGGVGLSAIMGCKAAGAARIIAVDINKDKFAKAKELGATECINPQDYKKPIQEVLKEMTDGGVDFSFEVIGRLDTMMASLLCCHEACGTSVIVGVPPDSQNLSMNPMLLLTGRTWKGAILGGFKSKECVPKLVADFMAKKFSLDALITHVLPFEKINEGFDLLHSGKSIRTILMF
14-3-3 protein epsilon (Homo sapiens), sequence (P62258 whole entry): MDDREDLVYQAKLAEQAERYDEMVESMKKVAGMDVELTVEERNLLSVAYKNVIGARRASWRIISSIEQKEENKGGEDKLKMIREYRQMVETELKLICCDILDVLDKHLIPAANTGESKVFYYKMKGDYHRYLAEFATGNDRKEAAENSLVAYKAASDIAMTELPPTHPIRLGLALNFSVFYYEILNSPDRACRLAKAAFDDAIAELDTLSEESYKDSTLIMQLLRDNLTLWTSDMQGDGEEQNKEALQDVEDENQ
Protein disulfide-isomerase (Homo sapiens), sequence (P07237 18-508 limits assumed): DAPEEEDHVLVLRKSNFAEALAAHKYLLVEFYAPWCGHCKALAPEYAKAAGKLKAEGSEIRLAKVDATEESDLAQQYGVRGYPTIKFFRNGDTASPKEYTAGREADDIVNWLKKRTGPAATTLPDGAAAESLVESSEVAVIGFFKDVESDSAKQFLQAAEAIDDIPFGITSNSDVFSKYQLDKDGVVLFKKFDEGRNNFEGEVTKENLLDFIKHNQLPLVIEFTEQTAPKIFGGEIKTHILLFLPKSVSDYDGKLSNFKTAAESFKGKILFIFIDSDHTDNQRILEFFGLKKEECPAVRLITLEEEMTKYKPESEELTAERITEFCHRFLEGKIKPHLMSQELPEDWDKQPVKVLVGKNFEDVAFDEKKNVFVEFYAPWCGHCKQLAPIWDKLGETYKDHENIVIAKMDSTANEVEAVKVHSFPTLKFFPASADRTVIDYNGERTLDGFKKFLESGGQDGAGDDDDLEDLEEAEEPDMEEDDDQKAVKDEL
Enoyl-CoA hydratase domain-containing protein 2, mitochondrial (Homo sapiens), sequence (Q86YB7 36-292 limits assumed): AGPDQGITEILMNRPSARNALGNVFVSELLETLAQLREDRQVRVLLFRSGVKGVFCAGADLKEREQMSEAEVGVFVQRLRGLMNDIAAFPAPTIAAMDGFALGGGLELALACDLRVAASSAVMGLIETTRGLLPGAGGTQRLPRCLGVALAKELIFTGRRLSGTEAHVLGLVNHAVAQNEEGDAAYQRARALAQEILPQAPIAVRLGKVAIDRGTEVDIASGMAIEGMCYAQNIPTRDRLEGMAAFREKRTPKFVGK
Protein disulfide-isomerase A4 (Homo sapiens), sequence (P13667 21-645 limits assumed): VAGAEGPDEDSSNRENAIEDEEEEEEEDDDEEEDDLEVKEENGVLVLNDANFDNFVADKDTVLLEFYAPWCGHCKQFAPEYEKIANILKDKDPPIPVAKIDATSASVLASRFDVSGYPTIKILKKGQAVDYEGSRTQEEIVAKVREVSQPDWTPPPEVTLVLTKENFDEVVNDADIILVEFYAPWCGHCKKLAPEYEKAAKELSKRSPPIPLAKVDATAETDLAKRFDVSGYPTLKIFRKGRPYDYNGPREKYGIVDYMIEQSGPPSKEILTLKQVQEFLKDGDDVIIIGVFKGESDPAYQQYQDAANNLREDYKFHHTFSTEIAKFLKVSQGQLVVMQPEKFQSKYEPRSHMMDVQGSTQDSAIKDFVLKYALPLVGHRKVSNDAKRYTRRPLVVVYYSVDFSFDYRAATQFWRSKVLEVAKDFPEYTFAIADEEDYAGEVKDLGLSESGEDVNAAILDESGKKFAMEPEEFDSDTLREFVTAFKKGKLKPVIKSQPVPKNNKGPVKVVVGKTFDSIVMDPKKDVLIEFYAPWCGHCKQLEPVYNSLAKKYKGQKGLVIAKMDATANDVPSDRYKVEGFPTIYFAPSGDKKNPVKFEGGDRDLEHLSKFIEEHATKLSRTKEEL
Vimentin (Homo sapiens), sequence (P08670 2-466 limits assumed): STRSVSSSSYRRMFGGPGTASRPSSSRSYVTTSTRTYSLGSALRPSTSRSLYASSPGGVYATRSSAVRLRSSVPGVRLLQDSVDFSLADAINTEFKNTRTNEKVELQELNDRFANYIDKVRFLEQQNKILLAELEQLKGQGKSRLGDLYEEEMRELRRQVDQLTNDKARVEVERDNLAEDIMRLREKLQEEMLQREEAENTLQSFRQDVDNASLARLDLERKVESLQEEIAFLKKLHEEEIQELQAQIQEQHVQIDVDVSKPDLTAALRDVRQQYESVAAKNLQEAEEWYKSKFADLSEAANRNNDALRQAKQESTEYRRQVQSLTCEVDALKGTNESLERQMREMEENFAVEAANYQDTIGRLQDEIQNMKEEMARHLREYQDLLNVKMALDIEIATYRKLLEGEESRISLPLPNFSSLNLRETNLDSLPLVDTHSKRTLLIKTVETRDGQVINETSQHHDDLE
Cytochrome b5 (Homo sapiens), sequence (P00167 2-134 limits assumed): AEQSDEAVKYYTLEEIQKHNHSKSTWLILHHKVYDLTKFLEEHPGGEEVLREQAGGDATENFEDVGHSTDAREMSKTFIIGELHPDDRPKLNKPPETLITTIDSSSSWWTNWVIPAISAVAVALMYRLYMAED
Membrane-associated progesterone receptor component 1 (Homo sapiens), sequence (O00264 whole entry): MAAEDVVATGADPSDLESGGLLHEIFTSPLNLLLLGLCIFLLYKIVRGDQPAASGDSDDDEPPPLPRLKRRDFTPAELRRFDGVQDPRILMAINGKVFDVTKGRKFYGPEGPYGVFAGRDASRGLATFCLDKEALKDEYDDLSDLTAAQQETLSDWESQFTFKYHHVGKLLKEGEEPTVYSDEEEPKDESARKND
Tropomyosin alpha-4 chain (Homo sapiens), sequence (P67936 2-248 limits assumed): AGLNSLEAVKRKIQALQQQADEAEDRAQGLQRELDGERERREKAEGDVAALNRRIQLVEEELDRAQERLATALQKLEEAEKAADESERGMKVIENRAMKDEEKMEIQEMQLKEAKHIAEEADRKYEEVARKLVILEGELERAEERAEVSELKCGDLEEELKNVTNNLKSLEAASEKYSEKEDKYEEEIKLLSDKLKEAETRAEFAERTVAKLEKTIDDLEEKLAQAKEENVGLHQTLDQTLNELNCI
Protein disulfide-isomerase A3 (Homo sapiens), sequence (P30101 25-505 limits assumed): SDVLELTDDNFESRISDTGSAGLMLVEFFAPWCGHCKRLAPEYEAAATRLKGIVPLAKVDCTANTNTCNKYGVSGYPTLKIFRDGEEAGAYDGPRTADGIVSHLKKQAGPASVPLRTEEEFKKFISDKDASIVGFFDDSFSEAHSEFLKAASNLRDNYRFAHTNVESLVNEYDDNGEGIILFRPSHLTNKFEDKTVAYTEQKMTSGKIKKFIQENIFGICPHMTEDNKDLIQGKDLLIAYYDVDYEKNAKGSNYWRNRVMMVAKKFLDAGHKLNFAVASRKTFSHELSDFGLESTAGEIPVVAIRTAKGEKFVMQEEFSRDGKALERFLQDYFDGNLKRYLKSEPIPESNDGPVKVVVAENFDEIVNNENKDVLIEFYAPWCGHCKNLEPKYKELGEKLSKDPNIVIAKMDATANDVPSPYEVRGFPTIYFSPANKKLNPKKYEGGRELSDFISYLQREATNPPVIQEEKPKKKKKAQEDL
Calreticulin (Homo sapiens), sequence (P27797 18-417 limits assumed): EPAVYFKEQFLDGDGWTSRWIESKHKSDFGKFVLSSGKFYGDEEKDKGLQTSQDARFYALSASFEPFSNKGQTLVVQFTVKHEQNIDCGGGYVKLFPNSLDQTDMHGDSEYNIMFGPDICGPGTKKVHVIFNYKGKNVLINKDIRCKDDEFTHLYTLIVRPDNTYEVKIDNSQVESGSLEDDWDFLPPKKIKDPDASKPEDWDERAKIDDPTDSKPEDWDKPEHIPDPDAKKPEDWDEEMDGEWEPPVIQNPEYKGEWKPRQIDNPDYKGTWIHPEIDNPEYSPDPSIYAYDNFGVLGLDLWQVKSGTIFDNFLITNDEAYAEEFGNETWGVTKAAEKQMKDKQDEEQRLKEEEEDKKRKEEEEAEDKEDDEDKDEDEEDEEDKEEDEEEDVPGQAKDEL
Cytochrome b-c1 complex subunit 6, mitochondrial (Homo sapiens), sequence (P07919 14-91 limits assumed, one chain of several): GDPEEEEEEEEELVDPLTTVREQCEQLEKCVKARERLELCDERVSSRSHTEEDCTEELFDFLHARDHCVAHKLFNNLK

Question: Which % Coverage of the unique peptides observed [1] does the source give for sPIF-1(15) (peptide) here?
Answer: 71%

Question: What about the % Coverage of the unique peptides observed [2] of the same substance?
Answer: 53%

Question: What about the % Coverage of the unique peptides observed [3] of the same substance?
Answer: 46%

Question: What about the % Coverage of the unique peptides observed [4] of the same substance?
Answer: 56%

Question: And the % Coverage of the unique peptides observed [5]?
Answer: 34%

Question: What about the % Coverage of the unique peptides observed [6] of the same substance?
Answer: 42%

Question: What about the % Coverage of the unique peptides observed [7] of the same substance?
Answer: 46%

Question: And the % Coverage of the unique peptides observed [8]?
Answer: 76%

Question: And the % Coverage of the unique peptides observed [9]?
Answer: 44%

Question: And the % Coverage of the unique peptides observed [10]?
Answer: 52%

Question: And the % Coverage of the unique peptides observed [11]?
Answer: 48%

Question: And the % Coverage of the unique peptides observed (Vimentin (Homo sapiens) [12])?
Answer: 49%

Question: And the % Coverage of the unique peptides observed [13]?
Answer: 64%

Question: And the % Coverage of the unique peptides observed [14]?
Answer: 48%

Question: What about the % Coverage of the unique peptides observed [15] of the same substance?
Answer: 34%

Question: What about the % Coverage of the unique peptides observed [16] of the same substance?
Answer: 54%

Question: And the % Coverage of the unique peptides observed [17]?
Answer: 66%

Question: And the % Coverage of the unique peptides observed [18]?
Answer: 61%

Question: What about the % Coverage of the unique peptides observed [19] of the same substance?
Answer: 19%

Question: And the % Coverage of the unique peptides observed [20]?
Answer: 46%

Question: What about the % Coverage of the unique peptides observed [21] of the same substance?
Answer: 70%

Question: And the % Coverage of the unique peptides observed [22]?
Answer: 58%

Question: What about the % Coverage of the unique peptides observed [23] of the same substance?
Answer: 43%

Question: What about the % Coverage of the unique peptides observed [24] of the same substance?
Answer: 52%

Question: What about the % Coverage of the unique peptides observed [25] of the same substance?
Answer: 25%

Question: What about the % Coverage of the unique peptides observed [26] of the same substance?
Answer: 43%

Question: What about the % Coverage of the unique peptides observed [27] of the same substance?
Answer: 31%

Question: And the % Coverage of the unique peptides observed [28]?
Answer: 52%

Question: And the % Coverage of the unique peptides observed [29]?
Answer: 46%

Question: What about the % Coverage of the unique peptides observed [30] of the same substance?
Answer: 82%

Question: What about the % Coverage of the unique peptides observed [31] of the same substance?
Answer: 29%

Question: And the % Coverage of the unique peptides observed [32]?
Answer: 75%

Question: And the % Coverage of the unique peptides observed [33]?
Answer: 42%

Question: And the % Coverage of the unique peptides observed [34]?
Answer: 51%

Question: And the % Coverage of the unique peptides observed [35]?
Answer: 52%

Question: What about the % Coverage of the unique peptides observed [36] of the same substance?
Answer: 40%

Question: What about the % Coverage of the unique peptides observed (Vimentin (Homo sapiens) [37]) of the same substance?
Answer: 52%
